Test results as given in doi:10.1101/415992.

Molecular target: Mps1-1 kinetochores (budding yeast) (UniProt P40568)
Assay: optical trap force-clamp flow assay

Chain of UniProt P40568 (P40568 whole entry, looked up): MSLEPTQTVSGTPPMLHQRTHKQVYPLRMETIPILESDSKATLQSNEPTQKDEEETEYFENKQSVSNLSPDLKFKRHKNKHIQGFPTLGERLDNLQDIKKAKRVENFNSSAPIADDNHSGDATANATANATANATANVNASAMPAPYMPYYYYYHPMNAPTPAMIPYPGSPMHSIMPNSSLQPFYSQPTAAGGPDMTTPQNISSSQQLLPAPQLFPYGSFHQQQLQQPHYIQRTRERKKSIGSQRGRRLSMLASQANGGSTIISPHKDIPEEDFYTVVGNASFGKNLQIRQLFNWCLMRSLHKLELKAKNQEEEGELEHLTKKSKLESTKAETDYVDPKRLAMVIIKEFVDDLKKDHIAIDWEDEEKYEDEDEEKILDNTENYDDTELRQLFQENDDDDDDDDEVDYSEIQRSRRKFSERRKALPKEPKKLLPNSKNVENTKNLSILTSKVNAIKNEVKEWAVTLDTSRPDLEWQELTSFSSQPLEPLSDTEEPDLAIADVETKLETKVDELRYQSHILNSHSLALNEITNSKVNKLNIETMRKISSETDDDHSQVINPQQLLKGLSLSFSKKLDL

detachment rate (with 0.5 μM AurB*, 1.5 pN): 28.9 hr^-1
detachment rate (with 0.5 μM AurB*, 5 pN): 7 hr^-1
detachment rate (with 0.5 μM AurB*, ~1 pN): 4.6 hr^-1
detachment rate (with 0.5 μM AurB*-KD, 1.5 pN): 10.4 hr^-1
detachment rate (with 0.5 μM AurB*-KD, 5 pN): 7 hr^-1
detachment rate (with 5 μM AurB*, ~1 pN): 7.2 hr^-1
Substance: dynamic microtubules (assembling and shortening tips of single, coverslip-anchored microtubules) (from UniProt Q6B856 1-445) (complex)
